Our source for the Kd values is patent US20260295010 (published 2026).

Numbering of substitutions follows the chain as printed. Numbers in names are those of the source. Where “and” joins values, the source holds several entries; their conditions need not be identical. Equal entries are not always repeated.

B1: IL-12p70 p40-HIS6_C253S / p35_C16S_C89S (protein)
chain 1: MIWELKKDVYVVELDWYPDAPGEMVVLTCDTPEEDGITWTLDQSSEVLGSGKTLTIQVKEFGDAGQYTCHKGGEVLSHSLLLLHKKEDGIWSTDILKDQKEPKNKTFLRCEAKNYSGRFTCWWLTTISTDLTFSVKSSRGSSDPQGVTCGAATLSAERVRGDNKEYEYSVECQEDSACPAAEESLPIEVMVDAVHKLKYENYTSSFFIRDIIKPDPPKNLQLKPLKNSRQVEVSWEYPDTWSTPHSYFSLTFSVQVQGKSKREKKDRVFTDKTSATVICRKNASISVRAQDRYYSSSWSEWASVPCSGGGSHHHHHH
chain 2: MRNLPVATPDPGMFPSLHHSQNLLRAVSNMLQKARQTLEFYPCTSEEIDHEDITKDKTSTVEACLPLELTKNESCLNSRETSFITNGSSLASRKTSFMMALCLSSIYEDLKMYQVEFKTMNAKLLMDPKRQIFLDQNMLAVIDELMQALNFNSETVPQKSSLEEPDFYKTKIKLCILLHAFRIRAVTIDRVMSYLNAS
B2: IL-12p70 K259Y K265Y (protein)
chain 1: B1 chain 1 with K259Y, K265Y
chain 2: B1 chain 2
B3: IL-12p70 K259Y (protein)
chain 1: B1 chain 1 with K259Y
chain 2: B1 chain 2
B4: IL-12p70 K105E K259Y K265Y (protein)
chain 1: B1 chain 1 with K105E, K259Y, K265Y
chain 2: B1 chain 2
B5: IL-12p70 K105E K265Y (protein)
chain 1: B1 chain 1 with K105E, K265Y
chain 2: B1 chain 2
B6: IL-12p70 K265Y (protein)
chain 1: B1 chain 1 with K265Y
chain 2: B1 chain 2
B7: IL-12p70 I90A (protein)
chain 1: B1 chain 1 with I90A
chain 2: B1 chain 2
B8: IL-12p70 H195E (protein)
chain 1: B1 chain 1 with H195E
chain 2: B1 chain 2
B9: IL-12p70 D88K (protein)
chain 1: B1 chain 1 with D88K
chain 2: B1 chain 2
B10: IL-12p70 D88A (protein)
chain 1: B1 chain 1 with D88A
chain 2: B1 chain 2
B11: IL-12p70 T203A (protein)
chain 1: B1 chain 1 with T203A
chain 2: B1 chain 2
B12: IL-12p70 W91A (protein)
chain 1: B1 chain 1 with W91A
chain 2: B1 chain 2
B13: IL-12p70 E46K (protein)
chain 1: B1 chain 1 with E46K
chain 2: B1 chain 2
B14: IL-12p70 N104A (protein)
chain 1: B1 chain 1 with N104A
chain 2: B1 chain 2
B15: IL-12p70 E87K,K196E (protein)
chain 1: B1 chain 1 with E87K, K196E
chain 2: B1 chain 2
B16: IL-12p70 K59E (protein)
chain 1: B1 chain 1 with K59E
chain 2: B1 chain 2
B17: IL-12p70 K196A (protein)
chain 1: B1 chain 1 with K196A
chain 2: B1 chain 2
B18: IL-12p70 H195A (protein)
chain 1: B1 chain 1 with H195A
chain 2: B1 chain 2
B19: IL-12p70 D42K (protein)
chain 1: B1 chain 1 with D42K
chain 2: B1 chain 2
B20: IL-12p70 K103A (protein)
chain 1: B1 chain 1 with K103A
chain 2: B1 chain 2
B21: IL-12p70 D94A (protein)
chain 1: B1 chain 1 with D94A
chain 2: B1 chain 2
B22: IL-12p70 N201A (protein)
chain 1: B1 chain 1 with N201A
chain 2: B1 chain 2
B23: IL-12p70 K105A (protein)
chain 1: B1 chain 1 with K105A
chain 2: B1 chain 2
B24: IL-12p70 P21A (protein)
chain 1: B1 chain 1 with P21A
chain 2: B1 chain 2
B25: IL-12p70 K103E (protein)
chain 1: B1 chain 1 with K103E
chain 2: B1 chain 2
B26: IL-12p70 K59A (protein)
chain 1: B1 chain 1 with K59A
chain 2: B1 chain 2
B27: IL-12p70 W16A D94K (protein)
chain 1: B1 chain 1 with W16A, D94K
chain 2: B1 chain 2
B28: IL-12p70 W16A D94K K196E K265Y (protein)
chain 1: B1 chain 1 with W16A, D94K, K196E, K265Y
chain 2: B1 chain 2
B29: IL-12p70 W16A D94K K196E L197A (protein)
chain 1: B1 chain 1 with W16A, D94K, K196E, L197A
chain 2: B1 chain 2
B30: IL-12p70 D94K K196E (protein)
chain 1: B1 chain 1 with D94K, K196E
chain 2: B1 chain 2
B31: IL-12p70 W16A K196E (protein)
chain 1: B1 chain 1 with W16A, K196E
chain 2: B1 chain 2
B32: IL-12p70 W16A D94K K196E K259Y (protein)
chain 1: B1 chain 1 with W16A, D94K, K196E, K259Y
chain 2: B1 chain 2
B33: IL-12p70 W16A D94K K196E (protein)
chain 1: B1 chain 1 with W16A, D94K, K196E
chain 2: B1 chain 2

For one assay, the target named is T1, IL-12RB1-hFc (human, UniProt P42701). Kind of assay: SPR, 25C. On the technique in general: Surface plasmon resonance follows binding to a sensor surface in real time, without labels.
By Kd is commonly meant a measure of binding affinity in units of concentration. For B1, the Kd was 0.3 nM and 0.11 nM.
As to B2, the affinity, expressed as Kd, was 1.4 nM.
In turn, B3 yielded a Kd of 0.87 nM. This Kd is about 1.6-fold lower than that of the molecule before.
Same read-out and setting: then B4, with 1.8 nM.
Still for that read-out and setting: in the case of B5 it was 1.1 nM.
Still for that read-out and setting: then B6, with 0.51 nM.

Another assay deals with T1, IL-12RB1-hFc. Kind of assay: SPR, 25C. This is another data set of the same source.
For the molecule B7, the Kd stood at 0.06 nM.
Regarding B8, the Kd was determined as 0.06 nM.
Still for that read-out and setting: in the case of B1 it was 0.04 nM; in that of B9, 0.02 nM; in that of B10, 0.03 nM.
The same measure, in the same setting: in the case of B11 it was 0.04 nM; in that of B12, 0.07 nM; in that of B13, 0.04 nM.
B14 returned a Kd of 0.05 nM. The Kd values of the last two molecules are within 1.5-fold of each other.
Same read-out and setting: in the case of B3 it was 0.08 nM; in that of B15, 0.24 nM; in that of B16, 0.07 nM.
For the molecule B17, the Kd amounted to 0.04 nM.
Still for that read-out and setting: in the case of B18 it was 0.13 nM; in that of B19, 0.03 nM; in that of B20, 0.04 nM.
Still for that read-out and setting: then B21, with 0.69 nM; and B22, with 0.04 nM; and B6, with 0.11 nM.
In turn, B23 showed a Kd of 0.06 nM.
Same read-out and setting: then B24, with 0.06 nM.
Still for that read-out and setting: in the case of B25 it was 0.11 nM.
With B26, the Kd came to 0.07 nM.

Another assay addresses T2, IL-12RB2-hFc (human, UniProt Q99665).
T2 chain: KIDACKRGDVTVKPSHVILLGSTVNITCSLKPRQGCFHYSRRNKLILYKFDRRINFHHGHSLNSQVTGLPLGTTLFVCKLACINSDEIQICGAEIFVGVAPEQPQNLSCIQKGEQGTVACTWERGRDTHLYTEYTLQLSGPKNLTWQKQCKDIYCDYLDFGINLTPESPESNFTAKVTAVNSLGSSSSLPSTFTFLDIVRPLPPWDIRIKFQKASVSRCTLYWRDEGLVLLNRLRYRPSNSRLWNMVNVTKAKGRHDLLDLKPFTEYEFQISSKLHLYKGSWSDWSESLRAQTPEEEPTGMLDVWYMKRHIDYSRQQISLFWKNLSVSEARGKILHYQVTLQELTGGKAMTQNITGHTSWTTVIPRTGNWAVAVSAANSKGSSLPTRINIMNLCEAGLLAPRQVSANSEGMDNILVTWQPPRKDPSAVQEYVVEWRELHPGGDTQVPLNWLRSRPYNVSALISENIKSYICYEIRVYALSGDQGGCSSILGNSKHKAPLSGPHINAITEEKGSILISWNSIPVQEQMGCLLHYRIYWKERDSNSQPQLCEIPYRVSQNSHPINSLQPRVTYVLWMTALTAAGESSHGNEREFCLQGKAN
Kind of assay: SPR, 25C.
Consider B1, for which the Kd is 2.5 nM and 2.4 nM.
Consider B27, for which the Kd was found to be 2.4 nM.
On to B2, for which the equilibrium dissociation constant (Kd) is 7 nM.
Still for that read-out and setting: in the case of B28 it was 4.6 nM.
Still for that read-out and setting: in the case of B3 it was 4 nM.
Molecule B4 returned a Kd of 4 nM.
Same read-out and setting: in the case of B29 it was 3 nM.
Regarding B30, binding was characterised by a dissociation constant (Kd) of 2.3 nM.
The molecule B5 registered a Kd of 1.6 nM.
In the case of B6, binding was characterised by a dissociation constant (Kd) of 4.9 nM.
In the case of B31, the Kd was 2.8 nM.
Still for that read-out and setting: in the case of B32 it was 1.9 nM.
In turn, B33 displayed a Kd of 2.3 nM.

A further assay addresses T2, IL-12RB2-hFc. Kind of assay: SPR, 25C. This is another data set of the same source.
In turn, B7 returned a Kd of 0.35 nM.
Regarding B1, the Kd was 0.75 nM and 0.34 nM.
In turn, B9 returned a dissociation constant Kd of 0.31 nM. In other words, the sub-nanomolar range.
Still for that read-out and setting: in the case of B10 it was 0.38 nM.
For B11, the Kd was 0.5 nM.
Same read-out and setting: in the case of B12 it was 0.53 nM.
Same read-out and setting: in the case of B13 it was 0.52 nM.
Same read-out and setting: in the case of B14 it was 0.39 nM.
For the molecule B3, binding was characterised by a dissociation constant (Kd) of 1.1 nM.
As to B15, the Kd is 0.49 nM.
Molecule B16 registered a Kd of 0.49 nM.
The molecule B17 returned a Kd of 0.58 nM.
On to B18, for which the Kd came out at 0.54 nM.
As to B19, binding was characterised by a dissociation constant (Kd) of 0.45 nM.
Same read-out and setting: then B20, with 0.33 nM; and B21, with 0.43 nM.
Same read-out and setting: then B22, with 0.5 nM; and B6, with 1.6 nM; and B23, with 0.34 nM.
In turn, B25 showed a Kd of 0.34 nM.
The same measure, in the same setting: then B26, with 2.1 nM.
